# Data taken from patent US20250382602.
# Changes are numbered by the printed parent chain.
# Experiments:
# Settings in all cases: nanopore translocation; background mutations not given
# [1] = molecular target: T1, Dda 1993 C114P C114P (Enterobacteria phage T4) (UniProt P32270)
# T1 sequence: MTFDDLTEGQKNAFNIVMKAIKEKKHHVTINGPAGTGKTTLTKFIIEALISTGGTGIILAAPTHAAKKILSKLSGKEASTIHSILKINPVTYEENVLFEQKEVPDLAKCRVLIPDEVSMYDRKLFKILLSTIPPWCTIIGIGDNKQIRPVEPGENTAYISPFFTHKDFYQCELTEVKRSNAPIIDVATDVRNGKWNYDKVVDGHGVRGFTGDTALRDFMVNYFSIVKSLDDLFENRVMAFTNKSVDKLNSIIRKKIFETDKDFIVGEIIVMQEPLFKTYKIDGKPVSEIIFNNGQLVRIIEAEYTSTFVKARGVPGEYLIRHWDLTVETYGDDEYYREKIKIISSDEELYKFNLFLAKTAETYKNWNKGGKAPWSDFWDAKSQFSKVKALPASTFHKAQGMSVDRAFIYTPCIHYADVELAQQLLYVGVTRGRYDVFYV
# [2] = molecular target: T2, Dda 1993 C114S C114S (Enterobacteria phage T4) (UniProt P32270)
# T2 sequence: T1 sequence with P114S
# [3] = molecular target: T3, Dda 1993 C114I C114I (Enterobacteria phage T4) (UniProt P32270)
# T3 sequence: T1 sequence with P114I
# [4] = molecular target: T4, Dda 1993 C114A C114A (Enterobacteria phage T4) (UniProt P32270)
# T4 sequence: T1 sequence with P114A
# [5] = molecular target: T5, Dda 1993 C114G C114G (Enterobacteria phage T4) (UniProt P32270)
# T5 sequence: T1 sequence with P114G
# [6] = molecular target: T6, Dda 1993 C114T C114T (Enterobacteria phage T4) (UniProt P32270)
# T6 sequence: T1 sequence with P114T
substance,measurement,setting,value
barcoded 3.6 kb DNA analyte ligated to sequencing Y adaptor,activity (bps speed delta vs control),[1],84.5
same,activity (bps speed delta vs control),[2],-7.28
same,activity (bps speed delta vs control),[3],93.7
same,activity (bps speed delta vs control),[4],13.8
same,activity (bps speed delta vs control),[5],-11.3
same,activity (bps speed delta vs control),[6],-35.7
